Assay [1] has as its target T1, IL-2Rβ-his (Acro CD2-H5221) (UniProt P14784 27-239).
T1 construct: also called CD122; not shown: his tag
T1 sequence (looked up): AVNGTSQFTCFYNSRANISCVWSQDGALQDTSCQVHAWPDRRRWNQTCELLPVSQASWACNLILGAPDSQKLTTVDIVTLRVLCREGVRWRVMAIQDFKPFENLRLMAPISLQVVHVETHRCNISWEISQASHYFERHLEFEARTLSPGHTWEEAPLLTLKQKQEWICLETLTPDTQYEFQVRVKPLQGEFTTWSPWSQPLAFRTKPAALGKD
Nature of the assay: Octet BLI; IL-2Rβ-his on Ni-NTA sensor, analyte 2,000 to 31.25 nM.

For assay [2], the target named is T2, IL-2Rβ and common γ chain on HEK-Blue CD122/132 cells (InvivoGen hkb-il2bg) (UniProt P14784 27-551; P31785 23-369, limits assumed).
T2 sequence (looked up) 1: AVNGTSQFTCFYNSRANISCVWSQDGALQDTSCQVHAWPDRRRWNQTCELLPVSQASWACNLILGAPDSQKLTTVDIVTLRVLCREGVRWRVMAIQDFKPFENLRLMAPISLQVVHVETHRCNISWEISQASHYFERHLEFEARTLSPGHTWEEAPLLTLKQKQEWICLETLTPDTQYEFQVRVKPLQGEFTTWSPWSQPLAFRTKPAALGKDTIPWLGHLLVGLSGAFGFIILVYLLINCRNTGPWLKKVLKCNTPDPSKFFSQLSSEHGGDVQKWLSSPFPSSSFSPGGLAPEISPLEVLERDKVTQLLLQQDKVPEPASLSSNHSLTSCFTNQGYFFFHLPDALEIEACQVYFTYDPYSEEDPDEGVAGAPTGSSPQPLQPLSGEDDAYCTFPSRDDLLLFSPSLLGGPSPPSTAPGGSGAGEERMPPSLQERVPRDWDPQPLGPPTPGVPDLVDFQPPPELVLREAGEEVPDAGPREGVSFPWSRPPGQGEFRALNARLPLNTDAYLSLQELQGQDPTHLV
T2 sequence (looked up) 2: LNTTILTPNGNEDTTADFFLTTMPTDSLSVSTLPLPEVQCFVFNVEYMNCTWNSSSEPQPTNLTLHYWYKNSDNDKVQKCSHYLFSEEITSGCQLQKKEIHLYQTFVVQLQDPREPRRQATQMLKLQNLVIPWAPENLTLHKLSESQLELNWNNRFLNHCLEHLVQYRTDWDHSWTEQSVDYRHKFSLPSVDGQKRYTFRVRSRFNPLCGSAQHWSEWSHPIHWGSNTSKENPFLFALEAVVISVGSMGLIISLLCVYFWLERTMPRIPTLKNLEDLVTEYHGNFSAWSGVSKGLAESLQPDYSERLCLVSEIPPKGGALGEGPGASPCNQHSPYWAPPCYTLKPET
Kind of assay: cell-based or functional assay.

B1: GIC-982C1 (IL-2/IL-15) (Fc fusion)
chain: GSAESKYGPPCPPCPAPEAAGGPSVFLFPPKPKDQLMISRTPEVTCVVVDVSQEDPEVQFNWYVDGVEVHNAKTKPREEQFNSTYRVVSVLTVLHQDWLNGKEYKCKVSNKGLPSSIEKTISKAKGQPREPQVYTLPPSQEEMTKNQVSLTCLVKGFYPSDIAVEWESNGQPENNYKTTPPVLDSDGSFFLYSRLTVDKSRWQEGNVFSCSVLHEALHNHYTQKSLSLSLGGGGGSGGGGSITCPPPMSVEHADIWVKSYSLYSRERYICNSGFKRKAGTSSLTECVLNKATNVAHWTTPSLKCIRGGGGSGGGGSGGGGSGGGGSAPTSSSTKKTQLQLEHLLLDLQMILNGSMHIDATLYTESDVHPSCKVTAMKCFLLELQVISLESKNFHLRPRDLISNINVIVLELKGSNGNVTESGCKECEELEEKNIVEFLNRWITFCQSIISTLT
The Kd is the equilibrium constant for the complex coming apart. What is called koff is a measure of how fast the partners let go of each other. Read a high koff as fast dissociation. A word on the kon: it is the second-order rate constant of association. Higher therefore signals fast association. As to B1, in assay [1], binding was put at a Kd of 387 nM, the koff is 0.000335 s⁻¹ and the kon is 866 M⁻¹ s⁻¹. Also, the “EC50 (ng/ml), STAT5 activity, HEK-Blue CD122/132 reporter cells” value (“EC50 (ng/ml), STAT5 activity” below) in assay [2] is 1730 ng/mL.

B2: GIC-982C6 (IL-2/IL-15v5) (V80L) (Fc fusion)
chain: GSAESKYGPPCPPCPAPEAAGGPSVFLFPPKPKDQLMISRTPEVTCVVVDVSQEDPEVQFNWYVDGVEVHNAKTKPREEQFNSTYRVVSVLTVLHQDWLNGKEYKCKVSNKGLPSSIEKTISKAKGQPREPQVYTLPPSQEEMTKNQVSLTCLVKGFYPSDIAVEWESNGQPENNYKTTPPVLDSDGSFFLYSRLTVDKSRWQEGNVFSCSVLHEALHNHYTQKSLSLSLGGGGGSGGGGSITCPPPMSVEHADIWVKSYSLYSRERYICNSGFKRKAGTSSLTECVLNKATNVAHWTTPSLKCIRGGGGSGGGGSGGGGSGGGGSAPTSSSTKKTQLQLEHLLLDLQMILNGSMHIDATLYTESDVHPSCKVTAMKCFLLELQVISLESKNFHLRPRDLISNINLIVLELKGSNGNVTESGCKECEELEEKNIVEFLNRWITFCQSIISTLT
notes: the entry already holds the change
In assay [1], B2 displayed a Kd of 386 nM, a koff of 0.000435 s⁻¹ and a kon of 1130 M⁻¹ s⁻¹. Moreover, the “EC50 (ng/ml), STAT5 activity” value in assay [2] stood at 723 ng/mL.

B3: GIC-982C3 (IL-2/IL-15v2) (L74F) (Fc fusion)
chain: GSAESKYGPPCPPCPAPEAAGGPSVFLFPPKPKDQLMISRTPEVTCVVVDVSQEDPEVQFNWYVDGVEVHNAKTKPREEQFNSTYRVVSVLTVLHQDWLNGKEYKCKVSNKGLPSSIEKTISKAKGQPREPQVYTLPPSQEEMTKNQVSLTCLVKGFYPSDIAVEWESNGQPENNYKTTPPVLDSDGSFFLYSRLTVDKSRWQEGNVFSCSVLHEALHNHYTQKSLSLSLGGGGGSGGGGSITCPPPMSVEHADIWVKSYSLYSRERYICNSGFKRKAGTSSLTECVLNKATNVAHWTTPSLKCIRGGGGSGGGGSGGGGSGGGGSAPTSSSTKKTQLQLEHLLLDLQMILNGSMHIDATLYTESDVHPSCKVTAMKCFLLELQVISLESKNFHLRPRDFISNINVIVLELKGSNGNVTESGCKECEELEEKNIVEFLNRWITFCQSIISTLT
notes: as for B2
In assay [1], B3 showed an equilibrium dissociation constant (Kd) of 302 nM, a koff of 0.000481 s⁻¹ and a kon of 1590 M⁻¹ s⁻¹. In addition, the “EC50 (ng/ml), STAT5 activity” value in assay [2] is 9740 ng/mL.

B4: GIC-982C13 (IL-2/IL-15v6) (S76E) (Fc fusion)
chain: GSAESKYGPPCPPCPAPEAAGGPSVFLFPPKPKDQLMISRTPEVTCVVVDVSQEDPEVQFNWYVDGVEVHNAKTKPREEQFNSTYRVVSVLTVLHQDWLNGKEYKCKVSNKGLPSSIEKTISKAKGQPREPQVYTLPPSQEEMTKNQVSLTCLVKGFYPSDIAVEWESNGQPENNYKTTPPVLDSDGSFFLYSRLTVDKSRWQEGNVFSCSVLHEALHNHYTQKSLSLSLGGGGGSGGGGSITCPPPMSVEHADIWVKSYSLYSRERYICNSGFKRKAGTSSLTECVLNKATNVAHWTTPSLKCIRGGGGSGGGGSGGGGSGGGGSAPTSSSTKKTQLQLEHLLLDLQMILNGSMHIDATLYTESDVHPSCKVTAMKCFLLELQVISLESKNFHLRPRDLIENINVIVLELKGSNGNVTESGCKECEELEEKNIVEFLNRWITFCQSIISTLT
In assay [1], B4 came in with a Kd of 105 nM, a koff of 0.000204 s⁻¹ and a kon of 1930 M⁻¹ s⁻¹. In assay [2], the “EC50 (ng/ml), STAT5 activity” value worked out at 1390 ng/mL.

B5: GIC-982C4 (IL-2/IL-15v3) (S76D) (Fc fusion)
chain: GSAESKYGPPCPPCPAPEAAGGPSVFLFPPKPKDQLMISRTPEVTCVVVDVSQEDPEVQFNWYVDGVEVHNAKTKPREEQFNSTYRVVSVLTVLHQDWLNGKEYKCKVSNKGLPSSIEKTISKAKGQPREPQVYTLPPSQEEMTKNQVSLTCLVKGFYPSDIAVEWESNGQPENNYKTTPPVLDSDGSFFLYSRLTVDKSRWQEGNVFSCSVLHEALHNHYTQKSLSLSLGGGGGSGGGGSITCPPPMSVEHADIWVKSYSLYSRERYICNSGFKRKAGTSSLTECVLNKATNVAHWTTPSLKCIRGGGGSGGGGSGGGGSGGGGSAPTSSSTKKTQLQLEHLLLDLQMILNGSMHIDATLYTESDVHPSCKVTAMKCFLLELQVISLESKNFHLRPRDLIDNINVIVLELKGSNGNVTESGCKECEELEEKNIVEFLNRWITFCQSIISTLT
notes: as for B2
In the case of B5, in assay [1], the Kd is 144 nM, the koff was 0.000338 s⁻¹ and the kon worked out at 2350 M⁻¹ s⁻¹. Further, the “EC50 (ng/ml), STAT5 activity” value in assay [2] worked out at 255 ng/mL.

B6: GIC-982C2 (IL-2/IL-15v1) (D73E) (Fc fusion)
chain: GSAESKYGPPCPPCPAPEAAGGPSVFLFPPKPKDQLMISRTPEVTCVVVDVSQEDPEVQFNWYVDGVEVHNAKTKPREEQFNSTYRVVSVLTVLHQDWLNGKEYKCKVSNKGLPSSIEKTISKAKGQPREPQVYTLPPSQEEMTKNQVSLTCLVKGFYPSDIAVEWESNGQPENNYKTTPPVLDSDGSFFLYSRLTVDKSRWQEGNVFSCSVLHEALHNHYTQKSLSLSLGGGGGSGGGGSITCPPPMSVEHADIWVKSYSLYSRERYICNSGFKRKAGTSSLTECVLNKATNVAHWTTPSLKCIRGGGGSGGGGSGGGGSGGGGSAPTSSSTKKTQLQLEHLLLDLQMILNGSMHIDATLYTESDVHPSCKVTAMKCFLLELQVISLESKNFHLRPRELISNINVIVLELKGSNGNVTESGCKECEELEEKNIVEFLNRWITFCQSIISTLT
notes: as for B2
In assay [1], B6 returned a Kd of 215 nM, a koff of 0.000148 s⁻¹ and a kon of 686 M⁻¹ s⁻¹. Further, the “EC50 (ng/ml), STAT5 activity” value in assay [2] worked out at 1080 ng/mL.

B7: GIC-982C5 (IL-2/IL-15v4) (N77D) (Fc fusion)
chain: GSAESKYGPPCPPCPAPEAAGGPSVFLFPPKPKDQLMISRTPEVTCVVVDVSQEDPEVQFNWYVDGVEVHNAKTKPREEQFNSTYRVVSVLTVLHQDWLNGKEYKCKVSNKGLPSSIEKTISKAKGQPREPQVYTLPPSQEEMTKNQVSLTCLVKGFYPSDIAVEWESNGQPENNYKTTPPVLDSDGSFFLYSRLTVDKSRWQEGNVFSCSVLHEALHNHYTQKSLSLSLGGGGGSGGGGSITCPPPMSVEHADIWVKSYSLYSRERYICNSGFKRKAGTSSLTECVLNKATNVAHWTTPSLKCIRGGGGSGGGGSGGGGSGGGGSAPTSSSTKKTQLQLEHLLLDLQMILNGSMHIDATLYTESDVHPSCKVTAMKCFLLELQVISLESKNFHLRPRDLISDINVIVLELKGSNGNVTESGCKECEELEEKNIVEFLNRWITFCQSIISTLT
notes: as for B2
Turning to B7, in assay [1], the Kd was determined as 1290 nM, the koff turned out to be 0.000313 s⁻¹ and the kon worked out at 242 M⁻¹ s⁻¹.

B8: GIC-982C12 (IL-2/IL-15v11) (D73E, L74F, S76D, N77D, V80L) (Fc fusion)
chain: GSAESKYGPPCPPCPAPEAAGGPSVFLFPPKPKDQLMISRTPEVTCVVVDVSQEDPEVQFNWYVDGVEVHNAKTKPREEQFNSTYRVVSVLTVLHQDWLNGKEYKCKVSNKGLPSSIEKTISKAKGQPREPQVYTLPPSQEEMTKNQVSLTCLVKGFYPSDIAVEWESNGQPENNYKTTPPVLDSDGSFFLYSRLTVDKSRWQEGNVFSCSVLHEALHNHYTQKSLSLSLGGGGGSGGGGSITCPPPMSVEHADIWVKSYSLYSRERYICNSGFKRKAGTSSLTECVLNKATNVAHWTTPSLKCIRGGGGSGGGGSGGGGSGGGGSAPTSSSTKKTQLQLEHLLLDLQMILNGSMHIDATLYTESDVHPSCKVTAMKCFLLELQVISLESKNFHLRPREFIDDINLIVLELKGSNGNVTESGCKECEELEEKNIVEFLNRWITFCQSIISTLT
notes: the entry already holds the changes
For the molecule B8, in assay [1], the dissociation constant (Kd) amounted to 265 nM, the koff was found to be 9.11e-05 s⁻¹ and the kon amounted to 344 M⁻¹ s⁻¹.

B9: GIC-982C14 (IL-2/IL-15v7) (S76N) (Fc fusion)
chain: GSAESKYGPPCPPCPAPEAAGGPSVFLFPPKPKDQLMISRTPEVTCVVVDVSQEDPEVQFNWYVDGVEVHNAKTKPREEQFNSTYRVVSVLTVLHQDWLNGKEYKCKVSNKGLPSSIEKTISKAKGQPREPQVYTLPPSQEEMTKNQVSLTCLVKGFYPSDIAVEWESNGQPENNYKTTPPVLDSDGSFFLYSRLTVDKSRWQEGNVFSCSVLHEALHNHYTQKSLSLSLGGGGGSGGGGSITCPPPMSVEHADIWVKSYSLYSRERYICNSGFKRKAGTSSLTECVLNKATNVAHWTTPSLKCIRGGGGSGGGGSGGGGSGGGGSAPTSSSTKKTQLQLEHLLLDLQMILNGSMHIDATLYTESDVHPSCKVTAMKCFLLELQVISLESKNFHLRPRDLINNINVIVLELKGSNGNVTESGCKECEELEEKNIVEFLNRWITFCQSIISTLT
Regarding B9, in assay [1], binding was characterised by a dissociation constant (Kd) of 327 nM, the koff was found to be 0.000223 s⁻¹ and the kon turned out to be 686 M⁻¹ s⁻¹. Also, the “EC50 (ng/ml), STAT5 activity” value in assay [2] turned out to be 997 ng/mL.
